In the supplement of paper PMC10567573 one finds protein stability index data, which are given here for 94 variants.

B1: CLCN6 (parent)
chain: TGLVGLFVDFFVRLFTQLKFGVVQ
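Further: lentivirally expressed fusions sorted by FACS into six bins by GFP to DsRed ratio, PSI derived from sequencing read proportions per bin multiplied by bin number.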

In the series the parent is B1. Nature of the series: protein stability index of a GFP-peptide fusion (GPS, HEK-293T) (PSI 1-6); higher = more stable. The following applies: c terminus: a fixed tail appended.
As for TGLVGLFVDFFVRLFNQLKFGVVQ [T16N], the protein stability index came to 3.55.
Then TGLVGLFVDFFVRLFFQLKFGVVQ [T16F], with 2.04; and TGLVGLFVDFFVRLFHQLKFGVVQ [T16H], with 2.78; and TGLVGLFVDFFVRLFMQLKFGVVQ [T16M], with 2.35.
Consider TGLVGLFVDFFVRLFDQLKFGVVQ [T16D], for which the protein stability index stood at 2.42.
Then TGLVGLFVDFFVRLFCQLKFGVVQ [T16C], with 1.99; and TGLVGLFVDFFVRLFAQLKFGVVQ [T16A], with 2.43; and TGLVGLFVDFFVRLFGQLKFGVVQ [T16G], with 2.81.
Then TGLVGLFVDFFVRLFLQLKFGVVQ [T16L], with 2.02; and TGLVGLFVDFFVRLFKQLKFGVVQ [T16K], with 2.76; and TGLVGLFVDFFVRLFIQLKFGVVQ [T16I], with 2.41.
For the variant TGLVGLFVDFFVRLFEQLKFGVVQ [T16E], the protein stability index is 1.75.
Then TGLVGLFVDFFVNLFTQLKFGVVQ [R13N], with 1.91; and TGLVGLFVDFFVKLFTQLKFGVVQ [R13K], with 2.73; and TGLVGLFVDFFVYLFTQLKFGVVQ [R13Y], with 2.62.
Then TGLVGLFVDFFVTLFTQLKFGVVQ [R13T], with 2.19; and TGLVGLFVDFFVWLFTQLKFGVVQ [R13W], with 2.1; and TGLVGLFVDFFVILFTQLKFGVVQ [R13I], with 2.59.
TGLVGLFVDFFVCLFTQLKFGVVQ [R13C]: the protein stability index was determined as 2.09.
Then TGLVGLFVDFFVVLFTQLKFGVVQ [R13V], with 1.76; and TGLVGLFVDFFVSLFTQLKFGVVQ [R13S], with 1.84.
Then TGLVGLFVDFFVGLFTQLKFGVVQ [R13G], with 1.54; and TGLVGLFVDFFVELFTQLKFGVVQ [R13E], with 2.34; and TGLVGLFVDFFVPLFTQLKFGVVQ [R13P], with 3.13.
Then TGLVGLFVDFFVALFTQLKFGVVQ [R13A], with 2.04; and TGLVGLFVDFFVMLFTQLKFGVVQ [R13M], with 3.23.
Turning to TGLVGLFVDFFVQLFTQLKFGVVQ [R13Q], the protein stability index was 1.81.
Then TGLVGLFVDFFVFLFTQLKFGVVQ [R13F], with 2.96; and TGLVGLFVDFFVHLFTQLKFGVVQ [R13H], with 2.22.
Then TGLVGLFVDFFVDLFTQLKFGVVQ [R13D], with 1.83.
Then TGLVGLFVDFQVRLFTQLKFGVVQ [F11Q], with 3.25; and TGLVGLFVDFYVRLFTQLKFGVVQ [F11Y], with 2.32; and TGLVGLFVDFPVRLFTQLKFGVVQ [F11P], with 2.07.
For TGLVGLFVDFSVRLFTQLKFGVVQ [F11S], the protein stability index came to 1.77.
Then TGLVGLFVDFRVRLFTQLKFGVVQ [F11R], with 2.75; and TGLVGLFVDFVVRLFTQLKFGVVQ [F11V], with 2.65; and TGLVGLFVDFNVRLFTQLKFGVVQ [F11N], with 2.88.
On to TGLVGLFVDFWVRLFTQLKFGVVQ [F11W], for which the protein stability index amounted to 2.35.
Then TGLVGLFVDFTVRLFTQLKFGVVQ [F11T], with 2.01.
Then TGLVGLFVDFFQRLFTQLKFGVVQ [V12Q], with 2.52; and TGLVGLFVDFFNRLFTQLKFGVVQ [V12N], with 1.56; and TGLVGLFVDFFFRLFTQLKFGVVQ [V12F], with 2.1.
Then TGLVGLFVDFFLRLFTQLKFGVVQ [V12L], with 1.95; and TGLVGLFVDFFHRLFTQLKFGVVQ [V12H], with 2.09; and TGLVGLFVDFFMRLFTQLKFGVVQ [V12M], with 2.47.
For the variant TGLVGLFVDFFERLFTQLKFGVVQ [V12E], the protein stability index was 1.96.
Then TGLVGLFVDFFCRLFTQLKFGVVQ [V12C], with 2.71; and TGLVGLFVDFFRRLFTQLKFGVVQ [V12R], with 2.04.
Then TGLVGLFVDFFDRLFTQLKFGVVQ [V12D], with 1.73; and TGLVGLFVDFFYRLFTQLKFGVVQ [V12Y], with 3.07.
As to TGLVGLFVDFFARLFTQLKFGVVQ [V12A], the protein stability index was 2.11.
Then TGLVGLFVDFFSRLFTQLKFGVVQ [V12S], with 2.45; and TGLVGLFVDFFWRLFTQLKFGVVQ [V12W], with 2.95.
For the variant TGLVGLFVDFFIRLFTQLKFGVVQ [V12I], the protein stability index came out at 2.02.
Then TGLVGLFVDFFGRLFTQLKFGVVQ [V12G], with 2.11; and TGLVGLFVDFFTRLFTQLKFGVVQ [V12T], with 2.08.
With TGLVGLFVDFFPRLFTQLKFGVVQ [V12P], the protein stability index worked out at 1.78.
For TGLVGLFVDFFKRLFTQLKFGVVQ [V12K], the protein stability index is 1.91.
In the case of TGLVGLFVDFFVRLNTQLKFGVVQ [F15N], the protein stability index was 2.67.
Then TGLVGLFVDFFVRLCTQLKFGVVQ [F15C], with 2.2.
Then TGLVGLFVDFFVRLHTQLKFGVVQ [F15H], with 2.71; and TGLVGLFVDFFVRLDTQLKFGVVQ [F15D], with 2.88; and TGLVGLFVDFFVRLKTQLKFGVVQ [F15K], with 2.12.
Then TGLVGLFVDFFVRLMTQLKFGVVQ [F15M], with 1.77; and TGLVGLFVDFFVRLPTQLKFGVVQ [F15P], with 2.86; and TGLVGLFVDFFVRLGTQLKFGVVQ [F15G], with 2.95.
With TGLVGLFVDFFVRLQTQLKFGVVQ [F15Q], the protein stability index is 3.33.
Then TGLVGLFVDFFVRLSTQLKFGVVQ [F15S], with 2.76.
For the variant TGLVGLFVDFFVRLATQLKFGVVQ [F15A], the protein stability index was 1.96.
Then TGLVGLFVDFFVRLVTQLKFGVVQ [F15V], with 2.72; and TGLVGLFVDFFVRLTTQLKFGVVQ [F15T], with 2.51; and TGLVGLFVDFFVRLWTQLKFGVVQ [F15W], with 3.46.
Then TGLVGLFVDFFVRLYTQLKFGVVQ [F15Y], with 2.73.
Then TGLVGLFVDFFVRLRTQLKFGVVQ [F15R], with 2.27; and TGLVGLFVDFFVRLLTQLKFGVVQ [F15L], with 1.96.
As for TGLVGLFVDFFVRLITQLKFGVVQ [F15I], the protein stability index came to 3.25.
For the variant TGLVGLFVDFFVRWFTQLKFGVVQ [L14W], the protein stability index turned out to be 2.8.
Then TGLVGLFVDFFVRIFTQLKFGVVQ [L14I], with 2.25; and TGLVGLFVDFFVRRFTQLKFGVVQ [L14R], with 1.86.
Then TGLVGLFVDFFVRMFTQLKFGVVQ [L14M], with 2.27; and TGLVGLFVDFFVRPFTQLKFGVVQ [L14P], with 1.68; and TGLVGLFVDFFVRYFTQLKFGVVQ [L14Y], with 2.25.
Then TGLVGLFVDFFVRDFTQLKFGVVQ [L14D], with 4.06; and TGLVGLFVDFFVRTFTQLKFGVVQ [L14T], with 1.99; and TGLVGLFVDFFVRSFTQLKFGVVQ [L14S], with 2.19.
TGLVGLFVDFFVRAFTQLKFGVVQ [L14A]: the protein stability index was 1.61.
With TGLVGLFVDFFVRFFTQLKFGVVQ [L14F], the protein stability index was determined as 2.57.
Then TGLVGLFVDFFVRHFTQLKFGVVQ [L14H], with 1.85.
Then TGLVGLFVDFFVRVFTQLKFGVVQ [L14V], with 2.02; and TGLVGLFVDFFVRCFTQLKFGVVQ [L14C], with 2.1; and TGLVGLFVDFFVRKFTQLKFGVVQ [L14K], with 2.34.
Then TGLVGLFVDFFVRQFTQLKFGVVQ [L14Q], with 1.55; and TGLVGLFVDFFVRGFTQLKFGVVQ [L14G], with 1.68.
TGLVGLFVDFFVRNFTQLKFGVVQ [L14N]: the protein stability index was found to be 1.83.
